Laboratory results taken from patent US20030175703, “RNA aptamers and methods for identifying the same” (published 2003).
Positions count from the first letter of the chain named.

B1: E10-11 (ssRNA)
RNA: GGGAGAGAGGAAGAGGGAUGGGCCAGAAGCGCUCACUACAACGUUGAACCCCCCGUCCACACCAUAACCCAGAGGUCGAU
B2: D7-7 (ssRNA)
RNA: GGGAGAGAGGAAGAGGGAUGGGAGAAUACGCCUAGCGAGAAGAUACUUGGCCCCCGUGCAACCAUAACCCAGAGGUCGAU
B3: E9-6 (ssRNA)
RNA: GGGAGAGAGGAAGAGGGAUGGGCCAGAAGCUAAACACUCAUAACCACGCUGAACCCCCCAACCAUAACCCAGAGGUCGAU
B4: F11-10 (ssRNA)
RNA: GGGAGAGAGGAAGAGGGAUGGGCUCGGCAGAAGACACGCAUUCACCUGGUGCCACCUCGUAACAUAACCCAGAGGUCGAU
B5: E10-4 (ssRNA)
RNA: GGGAGAGAGGAAGAGGGAUGGGUCUUAGAUAUAGAACUCCGAGAGGACUGACCGUACAGAACCAUAACCCAGAGGUCGAU
B6: E9-10 (ssRNA)
RNA: GGGAGAGAGGAAGAGGGAUGGGCCAGAACCAACUGCGGUGAACCCCCCAUACCGCGACACAUCAUAACCCAGAGGUCGAU
B7: D4-7 (ssRNA)
RNA: GGGAGAGAGGAAGAGGGAUGGGAUAAUAGCCCCAGCGAGAUAAUACUUGGCCCCGCUACUAACAUAACCCAGAGGUCGAU
B8: D7-6 (ssRNA)
RNA: B7 RNA with U24A, C59G, U60C, A62C
B9: D6-9 (ssRNA)
RNA: B7 RNA with U24A, A26U, A28U, U57A, A62C
B10: E10-12 (ssRNA)
RNA: B7 RNA with U24A, U57G, C59A, U60C, A62C
B11: D4-2 (ssRNA)
RNA: B7 RNA with U24A, A25C, A26U, C32U, U44C, A45G, C59A, U60G, A62C
B12: D6-2 (ssRNA)
RNA: B7 RNA with U24A, U60A, A62C
B13: D8-1 (ssRNA)
RNA: B7 RNA with U24A, A42G, C59A, A62C
B14: D4-5 (ssRNA)
RNA: B7 RNA with U24G, A45C, A61G, A62C
B15: D7-4 (ssRNA)
RNA: B7 RNA with U24G, A42C, A43G, C59G, A62C
B16: D7-1 (ssRNA)
RNA: B7 RNA with U24G, A28G, A42U, U57C, C59A, A62C
B17: D4-3 (ssRNA)
RNA: B7 RNA with A23U, U24A, U57A, A62C
B18: F11-7 (ssRNA)
RNA: B7 RNA with U24A, C59U, A62C
B19: D6-10 (ssRNA)
RNA: B7 RNA with A23C, U24A, A25G, C32A, A42C, A62C
B20: D6-3 (ssRNA)
RNA: B7 RNA with U24A, A58G, C59U, A62C
B21: D6-7 (ssRNA)
RNA: B7 RNA with A23U, U24G, A25C, U60A, A62C
B22: D4-9 (ssRNA)
RNA: B7 RNA with A23U, U24A, A26G, A28U, A43G
B23: D7-5 (ssRNA)
RNA: B7 RNA with U24A, A26C, C32U, A62C
B24: D7-2 (ssRNA)
RNA: B7 RNA with U24G, C59A, A62C
B25: F11-8 (ssRNA)
RNA: B7 RNA with U24G, A26U, A62C
B26: D7-9 (ssRNA)
RNA: B7 RNA with A23U, U24A, A42U, A43C, A62C
B27: E9-5 (ssRNA)
RNA: GGGAGAGAGGAAGAGGGAUGGGCCAGAAGCGACACUAACGCUGAACCCCCCAGUCCCUUCACGUGCAUAACCCAGAGGUCGAU
B28: E9-2 (ssRNA)
RNA: GGGAGAGAGGAAGAGGGAUGGGAUACCGAGCACGCAAAACACACAAUGCCCAAGCAGGACUCAUAACCCAGAGGUCGAU
B29: E9-8 (ssRNA)
RNA: GGGAGAGAGGAAGAGGGAUGGGCCAGAAGGAACUAAACACCUGAACCCCCCAUCGCGAGAGACAUAACCCAGAGGUCGAU
B30: E9-9 (ssRNA)
RNA: GGGAGAGAGGAAGAGGGAUGGGCCAGAACACCAGUGAACCCCCCAGCCCCUUCUCACCAGAUCAUAACCCAGAGGUCGAU
B31: F11-6 (ssRNA)
RNA: GGGAGAGAGGAAGAGGGAUGGGCCAGCAACGUCACACGAACGGAAUACCCCCCAUUGAAAACCAUAACCCAGAGGUCGAU
B32: D6-4 (ssRNA)
RNA: GGGAGAGAGGAAGAGGGAUGGGAAAUUUGCCCUAGCGAGAUUAUACUUGGCCCCGCGAAAAACCAUAACCCAGAGGUCGAU
B33: E9-3 (ssRNA)
RNA: GGGAGAGAGGAAGAGGGAUGGGCCAAAAGCGCAUACACCUGCGUGUUUCCCCCGCCAACAGUCAUAACCCAGAGGUCGAU
B34: E10-8 (ssRNA)
RNA: GGGAGAGAGGAAGAGGGAUGGGCCAAAAGCGGACUGAAGACGUGUUUCCCCCAUCUCCGUGACAUAACCCAGAGGUCGAU
B35: E10-6 (ssRNA)
RNA: GGGAGAGAGGAAGAGGGAUGGGGCCGUCGCCAGGAAUCAAACUGCUACUCCAUCCCGGGCACAUAACCCAGAGGUCGAU
B36: E9-4 (ssRNA)
RNA: GGGAGAGAGGAAGAGGGAUGGGAGCCCGAGAAAAUAACGCGUUCCACCAUACUACUAAGCCAUAACCCAGAGGUCGAU
B37: Ang2 aptamer 11-3 (ssRNA)
RNA: GGGAGGACGAUGCGGUUAACCAUCAGCUCAUGGCCCCUGCCCUCUCAAGGACCACCAGACGACUCGCUGAGGAUCCGAGA
modifications: 2'-F
B38: 9.27 (ssRNA)
RNA: GGGAGAGAGGAAGAGGGAUGGGUAAUAACUGUAUGGUGAACCCACCCAAACUCCCAUGGCUACAUAACCCAGAGGUCGAUAGUACUGGAUCCCCCC
modifications: 2'-F pyrimidines
B39: 9.19 (ssRNA)
RNA: GGGAGAGAGGAAGAGGGAUGGGACCAUAACGACUACUCGUGAAUCCCACCAUCAGCGCACAACAUAACCCAGAGGUCGAUAGUACUGGAUCCCCCC
modifications: 2'-F pyrimidines
B40: 9.28 (ssRNA)
RNA: GGGAGAGAGGAAGAGGGAUGGGCGCCAUACGCACAUUGCUGCAUCGCCUUCCCGUAAGAACCAUAACCCAGAGGUCGAUAGUACUGGAUCCCCCC
modifications: 2'-F pyrimidines
B41: 9.25 (ssRNA)
RNA: GGGAGAGAGGAAGAGGGAUGGGGACCAUAACUCUAACGGGUGAAUCCCGCAUCUCGACAAUACAUAACCCAGAGGUCGAUAGUACUGGAUCCCC
modifications: 2'-F pyrimidines
B42: 9.26 (ssRNA)
RNA: GGGAGAGAGGAAGAGGGAUGGGUGAUAACCACUCUGGUGAACCCCUCCCGACUUGCUCGCACAUAACCCAGAGGUCGAUAGUACUGGAUCCCCCC
modifications: 2'-F pyrimidines
B43: 9.20 (ssRNA)
RNA: GGGAGAGAGGAAGAGGGAUGGGGACUAUACCGGCAAUCGUGCAUCCCCUGGACCUAACAAUACAUAACCCAGAGGUCGAUAGUACUGGAUCCCCCC
modifications: 2'-F pyrimidines

What follows are binders tested against coagulation factor Xa (FXa) (UniProt P00742;P00742 P00742:41-179,P00742:235-488) (assay: not given).
Chain of coagulation factor Xa (FXa) (P00742 41-179, chain 1 of 2): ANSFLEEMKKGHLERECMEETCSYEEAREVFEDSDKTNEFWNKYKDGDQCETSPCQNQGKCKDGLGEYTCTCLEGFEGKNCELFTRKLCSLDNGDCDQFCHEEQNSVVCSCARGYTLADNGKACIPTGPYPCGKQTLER
Chain of coagulation factor Xa (FXa) (P00742 235-488, chain 2 of 2): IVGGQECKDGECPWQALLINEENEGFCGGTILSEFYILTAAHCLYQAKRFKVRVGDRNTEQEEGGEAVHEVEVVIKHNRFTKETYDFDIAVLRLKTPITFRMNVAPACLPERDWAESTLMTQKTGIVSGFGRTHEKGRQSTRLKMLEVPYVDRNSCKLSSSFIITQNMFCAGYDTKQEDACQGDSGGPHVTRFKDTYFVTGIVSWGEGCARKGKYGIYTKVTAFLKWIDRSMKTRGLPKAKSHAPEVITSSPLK

Row | Binder | Kd [nM] | binding result
1 | B1 | 27.1 | –
2 | B2 | 5.8 | –
3 | B3 | 95.1 | –
4 | B4 | 84.4 | –
5 | B5 | 37.4 | –
6 | B6 | 130 | –
7 | B7 | – | binds
8 | B8 | 3.8 | –
9 | B9 | 6.5 | –
10 | B10 | 11.7 | –
11 | B11 | 540 | –
12 | B12 | 4.6 | –
13 | B13 | 4.8 | –
14 | B14 | 21.7 | –
15 | B15 | 39.3 | –
16 | B16 | 4.7 | –
17 | B17 | 65.5 | –
18 | B18 | 3.6 | –
19 | B19 | 18.7 | –

Row | Binder | Kd [nM] | binding result
20 | B20 | 5.9 | –
21 | B21 | 13.2 | –
22 | B22 | > 240 | –
23 | B23 | 26.1 | –
24 | B24 | 8.1 | –
25 | B25 | 2.2 | –
26 | B26 | 2.63 | –
27 | B27 | 53.5 | –
28 | B28 | 58.6 | –
29 | B29 | 29.8 | –
30 | B30 | 52.8 | –
31 | B31 | 33.6 | –
32 | B32 | 8.5 | –
33 | B33 | 46.5 | –
34 | GAGAGCCCCAGCGAGAUAAUACUUGGCCCCGCUCUU (ssRNA) [11.F7t] | ~1.5 | –
35 | B34 | 28.4 | –
36 | B35 | 85.7 | –
37 | B36 | 65 | –

What follows are binders tested against angiopoietin-2 (Ang2) (UniProt O15123 O15123:19-496) (assay: not given).
Chain of angiopoietin-2 (Ang2) (O15123 19-496, one chain of several): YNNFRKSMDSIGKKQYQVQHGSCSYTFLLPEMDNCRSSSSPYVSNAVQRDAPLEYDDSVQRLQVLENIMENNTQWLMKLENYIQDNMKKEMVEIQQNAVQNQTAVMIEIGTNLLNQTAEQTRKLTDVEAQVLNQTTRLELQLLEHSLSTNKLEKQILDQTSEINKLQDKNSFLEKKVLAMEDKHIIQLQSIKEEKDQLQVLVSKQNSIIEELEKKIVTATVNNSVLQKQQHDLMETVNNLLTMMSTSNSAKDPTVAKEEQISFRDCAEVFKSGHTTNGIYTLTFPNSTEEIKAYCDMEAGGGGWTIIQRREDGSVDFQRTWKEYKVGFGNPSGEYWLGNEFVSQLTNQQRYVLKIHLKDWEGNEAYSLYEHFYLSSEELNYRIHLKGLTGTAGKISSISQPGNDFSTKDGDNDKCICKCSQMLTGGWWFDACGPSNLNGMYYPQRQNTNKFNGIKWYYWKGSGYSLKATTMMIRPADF

Row | Binder | Kd [nM]
38 | B37 | ~10

The binders below were run against thrombin (F2) (human, UniProt P00734;P00734 P00734:328-363,P00734:364-622) (assay: not given).

Row | Binder | Kd [nM]
39 | GGGAACAAAGCAGAAGUACUUACCC (ssRNA) [TOG 25 short loop U1] | ~250
40 | GGGAACAAAGCUGAAGUACUUAGGG (ssRNA) [TOG 25 short no stem] | ~1000
41 | GGGAACAAAGCUGAAGAACUUACCC (ssRNA) [TOG 25 short loop U2] | ~1
42 | GGGAACAAAGCUGAAGUACUUACCC (ssRNA) [TOG 25 short (TOGGLE-25t)] | ~1

These binders were tested against coagulation factor IXa (FIXa) (UniProt P00740;P00740 P00740:47-191,P00740:227-461) (assay: filter; double-filter nitrocellulose).
Chain of coagulation factor IXa (FIXa) (P00740 47-191, chain 1 of 2): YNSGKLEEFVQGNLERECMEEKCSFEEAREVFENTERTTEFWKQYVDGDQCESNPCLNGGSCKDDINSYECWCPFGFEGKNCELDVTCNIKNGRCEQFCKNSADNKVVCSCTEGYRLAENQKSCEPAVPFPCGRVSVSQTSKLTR
Chain of coagulation factor IXa (FIXa) (P00740 227-461, chain 2 of 2): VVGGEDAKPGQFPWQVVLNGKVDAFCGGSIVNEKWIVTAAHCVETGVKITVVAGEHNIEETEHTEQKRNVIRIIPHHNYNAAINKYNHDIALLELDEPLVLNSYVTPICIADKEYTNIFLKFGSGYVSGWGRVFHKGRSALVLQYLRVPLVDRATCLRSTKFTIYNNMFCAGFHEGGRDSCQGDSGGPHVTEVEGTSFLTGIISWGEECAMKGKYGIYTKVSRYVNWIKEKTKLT

Row | Binder | Kd [nM]
43 | B38 | 1.64
44 | B39 | 0.707
45 | B40 | 0.592
46 | B41 | 0.49
47 | B42 | 0.49
48 | B43 | 0.49
